Measurements taken from the supplement of paper PMC9170038.

Tested on: MS2 coat protein
Assay: apparent KD of MS2 coat protein; designed switch direction (-1 OFF switch, 1 ON switch): 1; higher = weaker reporter binding
Summary of the method: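 An oligonucleotide input, 200 uM small-molecule ligand, or no input was present during titration of SNAP-549-labelled MS2 coat protein, which was doubled from 0.7 or 1.5 nM to 3 µM. Designed RNA switches had been transcribed on Illumina chips by stalled E. coli RNA polymerase. Apparent KD per design is the median over clusters of curves fitted to normalised cluster fluorescence.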

[1] = input ligand: microRNA oligo, concentration not stated
[2] = Eterna round: R95, input ligand: FMN 200 uM
[3] = Eterna round: R95, input ligand: microRNA oligo, concentration not stated
[4] = Eterna round: R95, input ligand: none

Sequence | apparent KD of MS2 coat protein (input ligand: FMN 200 uM) [nM] | apparent KD of MS2 coat protein [1] [nM] | apparent KD of MS2 coat protein (input ligand: none) [nM] | apparent KD of MS2 coat protein [2] [nM] | apparent KD of MS2 coat protein [3] [nM] | apparent KD of MS2 coat protein [4] [nM]
CCGCGCUGUCGAGAGGAUAUGCGGUGAUGGACAUGAGGAUCACCCAUGUUAGCGAUAGCAUUACUGUAGAAGGCUCUACGGCGGC [JL-ss2-3.09 ViennaUCT mod] (Eterna round: R96, puzzle: Same State 2) | 11.2 | 10.2 | 16.3 |  |  | 
UGGUACAUGGGAGGAUAUCUCAUGGAGACAUGAGGAUCACCCAUGUAGUUGGACCGGAAACGGUGAGAGAAGGCCCAUGUACCU [JL SSNG1 3.72] (Eterna round: R96, puzzle: Same State NG 2) | 30.2 | 52.8 | 59.6 |  |  | 
ACAUAGGUUUCAGGAUAUGGGUAAAUUCCCUACAUGAGGAUCACCCAUGUCCGUAGGGAUAACAUCCAGAAGGGAAGCCACAUA [MOD3 Eternabot Solution 1 (Score 87.5)] (Eterna round: R96, puzzle: Same State NG 2) | 175 | 144 | 221 |  |  | 
GGUAUGGACACAGGAUAUGCUAUCCUUUGGGUAGCAGAAGGGUGAACAUGAGGAUCACCCAUGUACGUGCCAGGGCGUGAGCCC [JL SSNG1 1.78] (Eterna round: R96, puzzle: Same State NG 1) | 913 | 278 | 1620 |  |  | 
UUAAUUAUGUAAGGAUAUACAUGAGGAUUUCUCGUAGAAGGUACAUUACAUGAGGAUCACCCAUGUGGGUGUCCGUAGACGCCA [JL SSNG1 1.06] (Eterna round: R96, puzzle: Same State NG 1) |  | 475 |  |  |  | 
UGGCUCAGAGCAGGAUAUAUGUCUCGAGCUUCGGCUCGAGACAUGAGGAUCACCCAUGUAAUAACAUAGAAGGGCUCUGAGCCU [SSNG2/1-B3] (Eterna round: R96, puzzle: Same State NG 2) | 15.8 | 42 | 53.3 |  |  | 
GUAGCAUACCGAGGAUAUUCAUACAUGAGGAUCACCCAUGUUUAAUUAUAGGCCAAAAGGCCUUGGGAGAAGGCGGAAUGCUAC [Xeonanis - 20 Mod14] (Eterna round: R96, puzzle: Same State NG 2) | 8.39 | 10.1 | 14.4 |  |  | 
GUGGCCUAGGCACAGGAUAUGUUUCUCGUAACAUGAGGAUCACCCAUGUGCCUUUGAGAUUUUAUGCAGAAGGGUGCACGCCACG [JL Atiinbe mod 04] (puzzle: Same State 2) |  |  |  | 20.6 | 273 | 491
GGUCCAUCAUGAGGAUAUGGCACCUUAUUGGUGCCAGAAGGCAUGUCUAUAGACAUGAGGAUCACCCAUGUAAUAAAUUGGACC [Eli NG1ss - 93] (Eterna round: R96, puzzle: Same State NG 1) | 30.2 | 344 | 831 |  |  | 
CUCGUAUCGGGAGGAUAUGGUGCCUUGUUGGUGCUAGAAGGUCCAACAUGAGGAUCACCCAUGUGCGAGUGGUUGAGAGACCUC [SS NG10LRO14] (Eterna round: R96, puzzle: Same State NG 1) | 708 | 506 | 1000 |  |  | 
GGUGCGAAAUAAGCCUACAUGAGGAUCACCCAUGUAUGUAGGCAGGAUAUCGUUUGCAAAGCAAACGAGAAGGGCUGACGCACC [Mat - Same State NG 3 - JL Mod - D50] (Eterna round: R96, puzzle: Same State NG 3) | 31.1 | 52.6 | 94.5 |  |  | 
GGAGCCGGCACCGAGGAUAUUCAUAUUAAAACAUGAGGAUCACCCAUGUAGGCCAGAAGGCUUUGGGAGAAGGCGGAUCGGCUCG [Xeonanis - 3] (Eterna round: R96, puzzle: Same State 2) | 22.1 | 148 | 568 |  |  | 
CGAUCAUACUCAGGACGGAGAGUAGAGGAACAUGAGGAUCACCCAUGUAUGAGCUUUUUGCUCGUCAUGAACAGGAG [JR_SHM208a_Sub010] (puzzle: Sensor for hsa-mir-208a) |  |  |  | 67.2 | 59.7 | 121
UAUUAGAUCCGAGGAUAUCCUUAUUACAAACAUGAGGAUCACCCAUGUAAAGGGAAUGAGUUGUAGGAGAAGGCGGAUUUAGUU [JR_SSNG2_Sub057] (Eterna round: R96, puzzle: Same State NG 2) | 33.5 | 33 | 51 |  |  | 
GGUCCAGCCUGAGCUGGACAAAAGCAUGUACAUGAGGAUCACCCAUGUUCAUGUACAAGCUUUUUGCUCGUCUUAUA [salish99_208a_r3_045] (puzzle: Sensor for hsa-mir-208a) |  |  |  | 542 | 15.4 | 696
